Measured values as given in IntAct's records for PubMed 22135460.

B1: Late transcription coactivator (Enterobacteria phage T4), P13338 (parent)
chain: MTQFSLNDIRPVDETGLSEKELSIKKEKDEIAKLLDRQENGFIIEKMVEEFGMSYLEATTAFLEENSIPETQFAKFIPSGIIEKIQSEAIDENLLRPSVVRCEKTNTLDFLL

Variants of: B1
Conditions: with rpob_ecoli rpoB

| Variant | effect of a mutation on the interaction |
| --- | --- |
| E70K | decreasing interaction strength |
